Patent US20190352335A1, “BRAIN TARGETING LONG-ACTING PROTEIN CONJUGATE” (HANMI PHARM. CO., LTD., priority 2016, published 2019)

Experiment: In vitro specific enzyme activity of idursulfase conjugate (4MU fluorescence)
Format: biochemical
Conditions: substrate 4MU-α-idopyraA-2, 37° C. 4 hours, then α-iduronidase 37° C. 24 hours; FIG. 5
Method: To examine the presence of any change in specific activity of idursulfase according to the preparation of idursulfase-10 K PEG-Fc-BTP22 conjugate, an in vitro experiment for specific activity of enzymes was performed, 4-Methylumbelliferyl α-L-idopyranosiduronic acid-2-sulfate sodium salt (4MU-α-idopyraA-2), which is known as an enzyme substrate for idursulfase, was reacted with idursulfase β and IDS-Fc-BTP22 at 37° C. for 4 hours, and then, reacted with α-iduronidase, which is a secondary reaction enzyme, at 37° C. for 24 hours. The enzyme activity of 4-methylumbelliferone (4 MU), the final product, was measured by the measurement of the fluorescence of the corresponding substance (FIG. 5).
In particular, the values of enzyme activity were calculated in terms of specific activity per converted rate of weight (μg).

B1: idursulfase (protein, UniProt P22304 34-455; P22304 456-550, looked up)
Iduronate 2-sulfatase 42 kDa …: TDALNVLLIIVDDLRPSLGCYGDKLVRSPNIDQLASHSLLFQNAFAQQAVCAPSRVSFLTGRRPDTTRLYDFNSYWRVHAGNFSTIPQYFKENGYVTMSVGKVFHPGISSNHTDDSPYSWSFPPYHPSSEKYENTKTCRGPDGELHANLLCPVDVLDVPEGTLPDKQSTEQAIQLLEKMKTSASPFFLAVGYHKPHIPFRYPKEFQKLYPLENITLAPDPEVPDGLPPVAYNPWMDIRQREDVQALNISVPYGPIPVDFQRKIRQSYFASVSYLDTQVGRLLSALDDLQLANSTIIAFTSDHGWALGEHGEWAKYSNFDVATHVPLIFYVPGRTASLPEAGEKLFPYLDPFDSASQLMEPGRQSMDLVELVSLFPTLAGLAGLQVPPRCPVPSFHVELCREGKNLLKHFRFRDLEEDPYLPG
Iduronate 2-sulfatase 14 kDa …: NPRELIAYSQYPRPSDIPQWNSDKPSLKDIKIMGYSIRTIDYRYTVWVGFNPDEFLANFSDIHAGELYFVDSDPLQDHNMYNDSQGGDLFQLLMP
notes: purified type of iduronate-2-sulfatase (Shire, Ireland), approximately 72 kDa
enzyme activity (specific activity per weight of idursulfase part): 23.4 ± 1.94 nmol/min/µg
